The source of these data is US20250332197A1 (SUNSHINE LAKE PHARMA, published 2025).

For assay [1], the target named is T1, claudin-18.2 antigen (manufacturer: GenScript, batch number: R50092011) (UniProt P56856-2 1-261, limits assumed).
T1 construct: Bought antigen
T1 sequence (looked up): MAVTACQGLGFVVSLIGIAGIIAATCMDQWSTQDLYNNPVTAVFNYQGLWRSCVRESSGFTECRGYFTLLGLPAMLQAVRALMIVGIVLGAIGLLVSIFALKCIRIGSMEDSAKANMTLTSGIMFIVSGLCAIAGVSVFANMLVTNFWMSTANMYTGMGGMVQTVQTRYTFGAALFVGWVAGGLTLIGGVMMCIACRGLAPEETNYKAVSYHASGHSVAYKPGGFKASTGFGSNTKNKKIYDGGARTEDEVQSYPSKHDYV
Nature of the assay: Gator label-free kinetics, antibody loaded, antigen 2000-500 nM. How it is done: The GATOR instrument and associated software were opened and the Kinetics experimental mode was selected. After data collection, Kinetics fitting was performed to calculate the affinity kinetic parameters. The correlation coefficient R² of all antibodies in the Global fitting mode was greater than 0.95, which met the system suitability requirements and the results were reliable.

Assay [2] has as its target T1, claudin-18.2 antigen (manufacturer: …). Nature of the assay: ELISA, plate coated with claudin-18.2 antigen. As for the experimental part:
The ELISA plates were washed three times with PBST and blocked with 5% PBS-milk for 2 h at room temperature. The ELISA plate was washed three times with PBST, and the diluted antibodies were added to the ELISA plate, 30 μL per well, and incubated at room temperature for 60 min. The plates were washed three times with PBST and incubated with anti-human IgG-Fc-HRP (abcam, ab97225) for 50 min at room temperature. The plate was washed 12 times with PBST, and TMB was added, 30 μL per well. The reaction was terminated with stop solution and OD450 was read. The ELISA affinity EC50 was calculated.

B1: 1E7-huVH3-HC (IgG1) huVL2 (antibody)
heavy: not shown
light: DIQMTQSPSSLSASVGDRVTMTCKSSQSLLNSGNQKNYLTWYQQKPGKAPKLLIYWASTRESGVPSRFSGSGSGTDFTLTISSLQPEDFATYYCQNDYSYPFTFGGGTKLEIKRTVAAPSVFIFPPSDEQLKSGTASVVCLLNNFYPREAKVQWKVDNALQSGNSQESVTEQDSKDSTYSLSSTLTLSKADYEKHKVYACEVTHQGLSSPVTKSFNRGEC
notes: humanized 1E7, human IgG1, kappa
For the molecule B1, in assay [1], the affinity, expressed as Kd, was 0.289 nM; the koff stood at 2.94e-06 s⁻¹; the on-rate (kon) was 10200 M⁻¹ s⁻¹. In addition, in assay [2], the 50% effective concentration (EC50) came out at 0.0576 µg/mL.

B2: 1B6-huVH3huVL2 (antibody, human IgG4 S228P, kappa)
heavy: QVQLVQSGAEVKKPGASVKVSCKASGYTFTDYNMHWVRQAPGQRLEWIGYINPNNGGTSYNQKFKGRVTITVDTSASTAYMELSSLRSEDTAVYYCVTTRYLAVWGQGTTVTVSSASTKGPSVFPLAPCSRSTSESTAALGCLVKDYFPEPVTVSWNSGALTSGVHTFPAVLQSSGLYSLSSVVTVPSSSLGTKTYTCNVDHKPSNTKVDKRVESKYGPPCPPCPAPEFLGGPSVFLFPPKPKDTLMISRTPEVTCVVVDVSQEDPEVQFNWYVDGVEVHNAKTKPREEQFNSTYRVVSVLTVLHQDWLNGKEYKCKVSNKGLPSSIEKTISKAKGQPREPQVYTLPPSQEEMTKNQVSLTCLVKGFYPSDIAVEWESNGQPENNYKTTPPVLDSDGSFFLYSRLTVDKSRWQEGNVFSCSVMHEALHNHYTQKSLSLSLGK
light: DIQMTQSPSSLSASVGDRVTMTCKSSQSLFNSGNQKNYLTWYQQKPGKAPKLLIYWASTRESGVPSRFSGSGSGTDFTLTISSLQPEDFATYYCQNDYSYPLTFGGGTKLEIKRTVAAPSVFIFPPSDEQLKSGTASVVCLLNNFYPREAKVQWKVDNALQSGNSQESVTEQDSKDSTYSLSSTLTLSKADYEKHKVYACEVTHQGLSSPVTKSFNRGEC
notes: humanized 1B6, human IgG4, kappa
In assay [1], B2 returned a Kd of 12.7 nM, a dissociation rate constant (koff) of 0.000121 s⁻¹ and a kon of 9480 M⁻¹ s⁻¹. This molecule also displayed an EC50 in assay [2] of 0.245 µg/mL.

B3: 1E7-huVH3-HC (IgG1) huVL3 (antibody)
heavy: not shown
light: DIQMTQSPSSLSASVGDRVTITCRSSQSLLNSGNQKNYLTWYQQKPGKAPKLLIYWASTRESGVPSRFSGSGSGTDFTLTISSLQPEDFATYYCQNDYSYPFTFGGGTKLEIKRTVAAPSVFIFPPSDEQLKSGTASVVCLLNNFYPREAKVQWKVDNALQSGNSQESVTEQDSKDSTYSLSSTLTLSKADYEKHKVYACEVTHQGLSSPVTKSFNRGEC
notes: as for B1
Take B3: in assay [1], the dissociation constant (Kd) was determined as 11.6 nM, the koff was determined as 0.000132 s⁻¹ and the kon was found to be 11300 M⁻¹ s⁻¹. In assay [2], the half-maximal effective concentration (EC50) was 0.0707 µg/mL.

B4: 1E7-huVH3-HC (IgG1) huVL1 (antibody)
heavy: not shown
light: DIVMTQSPSSLSVSVGDRVTMTCKSSQSLLNSGNQKNYLTWYQQKPGQPPKLLIYWASTRESGVPDRFSGSGSGTDFTLTISSVQPEDFATYYCQNDYSYPFTFGGGTKLEIKRTVAAPSVFIFPPSDEQLKSGTASVVCLLNNFYPREAKVQWKVDNALQSGNSQESVTEQDSKDSTYSLSSTLTLSKADYEKHKVYACEVTHQGLSSPVTKSFNRGEC
notes: as for B1
For B4, in assay [1], the Kd stood at 0.35 nM, the off-rate (koff) came to 3.6e-06 s⁻¹ and the on-rate (kon) amounted to 10300 M⁻¹ s⁻¹. Moreover, in assay [2], a half-maximal effect (EC50) was put at 0.0663 µg/mL.

B5: 1E7-huVH4-HC (IgG1) huVL2 (antibody)
heavy: not shown
light: DIQMTQSPSSLSASVGDRVTMTCKSSQSLLNSGNQKNYLTWYQQKPGKAPKLLIYWASTRESGVPSRFSGSGSGTDFTLTISSLQPEDFATYYCQNDYSYPFTFGGGTKLEIKRTVAAPSVFIFPPSDEQLKSGTASVVCLLNNFYPREAKVQWKVDNALQSGNSQESVTEQDSKDSTYSLSSTLTLSKADYEKHKVYACEVTHQGLSSPVTKSFNRGEC
notes: as for B1
In assay [1], B5 showed a Kd of 10.7 nM, a dissociation rate constant (koff) of 0.000126 s⁻¹ and a kon of 11800 M⁻¹ s⁻¹. It took 0.0397 µg/mL to reach a half-maximal effect in assay [2] (EC50).

B6: 1E7-huVH2-HC (IgG1) huVL1 (antibody)
heavy: not shown
light: DIVMTQSPSSLSVSVGDRVTMTCKSSQSLLNSGNQKNYLTWYQQKPGQPPKLLIYWASTRESGVPDRFSGSGSGTDFTLTISSVQPEDFATYYCQNDYSYPFTFGGGTKLEIKRTVAAPSVFIFPPSDEQLKSGTASVVCLLNNFYPREAKVQWKVDNALQSGNSQESVTEQDSKDSTYSLSSTLTLSKADYEKHKVYACEVTHQGLSSPVTKSFNRGEC
notes: as for B1
In assay [1], B6 gave a Kd of 1.82 nM, a koff of 1.97e-05 s⁻¹ and a kon of 10900 M⁻¹ s⁻¹. In assay [2], this molecule registered an EC50 of 0.111 µg/mL.

B7: 1E7-huVH4-HC (IgG1) huVL3 (antibody)
heavy: not shown
light: DIQMTQSPSSLSASVGDRVTITCRSSQSLLNSGNQKNYLTWYQQKPGKAPKLLIYWASTRESGVPSRFSGSGSGTDFTLTISSLQPEDFATYYCQNDYSYPFTFGGGTKLEIKRTVAAPSVFIFPPSDEQLKSGTASVVCLLNNFYPREAKVQWKVDNALQSGNSQESVTEQDSKDSTYSLSSTLTLSKADYEKHKVYACEVTHQGLSSPVTKSFNRGEC
notes: as for B1
Take B7: in assay [1], the affinity, expressed as Kd, was 2.64 nM; the dissociation rate constant (koff) stood at 2.99e-05 s⁻¹; the kon amounted to 11300 M⁻¹ s⁻¹. Also, in assay [2], the EC50 turned out to be 0.05 µg/mL.

B8: 1E7-huVH5-HC (IgG1) huVL2 (antibody)
heavy: not shown
light: DIQMTQSPSSLSASVGDRVTMTCKSSQSLLNSGNQKNYLTWYQQKPGKAPKLLIYWASTRESGVPSRFSGSGSGTDFTLTISSLQPEDFATYYCQNDYSYPFTFGGGTKLEIKRTVAAPSVFIFPPSDEQLKSGTASVVCLLNNFYPREAKVQWKVDNALQSGNSQESVTEQDSKDSTYSLSSTLTLSKADYEKHKVYACEVTHQGLSSPVTKSFNRGEC
notes: as for B1
In assay [1], B8 showed an equilibrium dissociation constant (Kd) of 13.1 nM, a koff of 0.000167 s⁻¹ and an association rate constant (kon) of 12800 M⁻¹ s⁻¹. Also, the midpoint of the response in assay [2], the EC50, lay at 0.141 µg/mL.

B9: 1E7-huVH5-HC (IgG1) huVL3 (antibody)
heavy: not shown
light: DIQMTQSPSSLSASVGDRVTITCRSSQSLLNSGNQKNYLTWYQQKPGKAPKLLIYWASTRESGVPSRFSGSGSGTDFTLTISSLQPEDFATYYCQNDYSYPFTFGGGTKLEIKRTVAAPSVFIFPPSDEQLKSGTASVVCLLNNFYPREAKVQWKVDNALQSGNSQESVTEQDSKDSTYSLSSTLTLSKADYEKHKVYACEVTHQGLSSPVTKSFNRGEC
notes: as for B1
Take B9: in assay [1], the Kd came to 0.929 nM, the koff amounted to 9.83e-06 s⁻¹ and the on-rate constant (kon) is 10600 M⁻¹ s⁻¹. For the same molecule, in assay [2], the EC50 worked out at 0.13 µg/mL.

B10: 1E7-huVH2-HC (IgG1) huVL2 (antibody)
heavy: not shown
light: DIQMTQSPSSLSASVGDRVTMTCKSSQSLLNSGNQKNYLTWYQQKPGKAPKLLIYWASTRESGVPSRFSGSGSGTDFTLTISSLQPEDFATYYCQNDYSYPFTFGGGTKLEIKRTVAAPSVFIFPPSDEQLKSGTASVVCLLNNFYPREAKVQWKVDNALQSGNSQESVTEQDSKDSTYSLSSTLTLSKADYEKHKVYACEVTHQGLSSPVTKSFNRGEC
notes: as for B1
As for B10, in assay [1], the affinity, expressed as Kd, was 2.89 nM; the off-rate (koff) came out at 3.18e-05 s⁻¹; the kon stood at 11000 M⁻¹ s⁻¹. The molecule further displayed an EC50 in assay [2] of 0.0555 µg/mL.

B11: 1E7-huVH1-HC (IgG1) huVL2 (antibody)
heavy: not shown
light: DIQMTQSPSSLSASVGDRVTMTCKSSQSLLNSGNQKNYLTWYQQKPGKAPKLLIYWASTRESGVPSRFSGSGSGTDFTLTISSLQPEDFATYYCQNDYSYPFTFGGGTKLEIKRTVAAPSVFIFPPSDEQLKSGTASVVCLLNNFYPREAKVQWKVDNALQSGNSQESVTEQDSKDSTYSLSSTLTLSKADYEKHKVYACEVTHQGLSSPVTKSFNRGEC
notes: as for B1
B11: in assay [1], the affinity, expressed as Kd, was 4.85 nM; the koff is 5.87e-05 s⁻¹; the kon came to 12100 M⁻¹ s⁻¹. Also, the midpoint of the response in assay [2], the EC50, lay at 0.0305 µg/mL.

B12: 1E7-huVH1-HC (IgG1) huVL1 (antibody)
heavy: not shown
light: DIVMTQSPSSLSVSVGDRVTMTCKSSQSLLNSGNQKNYLTWYQQKPGQPPKLLIYWASTRESGVPDRFSGSGSGTDFTLTISSVQPEDFATYYCQNDYSYPFTFGGGTKLEIKRTVAAPSVFIFPPSDEQLKSGTASVVCLLNNFYPREAKVQWKVDNALQSGNSQESVTEQDSKDSTYSLSSTLTLSKADYEKHKVYACEVTHQGLSSPVTKSFNRGEC
notes: as for B1
With B12, in assay [1], the dissociation constant (Kd) came to 4.9 nM, the off-rate (koff) came out at 5.97e-05 s⁻¹ and the kon amounted to 12200 M⁻¹ s⁻¹. This molecule came in with an EC50 in assay [2] of 0.0479 µg/mL.

B13: 1E7-mVHmVL (antibody, human IgG4 S228P, kappa)
heavy: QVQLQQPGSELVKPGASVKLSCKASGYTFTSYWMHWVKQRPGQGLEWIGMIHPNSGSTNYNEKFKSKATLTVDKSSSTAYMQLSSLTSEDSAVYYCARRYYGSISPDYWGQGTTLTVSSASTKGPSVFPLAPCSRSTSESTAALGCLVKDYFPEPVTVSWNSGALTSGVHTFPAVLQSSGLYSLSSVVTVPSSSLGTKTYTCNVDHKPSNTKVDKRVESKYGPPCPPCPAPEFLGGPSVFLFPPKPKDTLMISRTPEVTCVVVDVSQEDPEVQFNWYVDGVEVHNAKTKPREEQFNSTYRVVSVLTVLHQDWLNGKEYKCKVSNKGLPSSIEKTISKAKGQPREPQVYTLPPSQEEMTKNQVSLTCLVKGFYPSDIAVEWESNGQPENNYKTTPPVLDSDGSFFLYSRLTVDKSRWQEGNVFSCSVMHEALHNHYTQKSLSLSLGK
light: DIVMTQSPSSLSVTAGEKVTMSCKSSQSLLNSGNQKNYLTWYQQKPGQPPKLLIYWASTRESGVPDRFTGSGSGTDFTLTISSVQAEDLAVYYCQNDYSYPFTFGSGTKLEIKRTVAAPSVFIFPPSDEQLKSGTASVVCLLNNFYPREAKVQWKVDNALQSGNSQESVTEQDSKDSTYSLSSTLTLSKADYEKHKVYACEVTHQGLSSPVTKSFNRGEC
notes: also called chimeric antibody 1E7; chimeric antibody murine 1E7 monoclonal antibody
For B13, in assay [1], the affinity, expressed as Kd, was 2.66 nM; the off-rate constant (koff) was found to be 2.71e-05 s⁻¹; the kon amounted to 10200 M⁻¹ s⁻¹.

B14: 1B6-mVH-HC (IgG1) mVL (antibody)
heavy: not shown
light: DIVMTQSPSSLTVTAGEKVTMSCKSSQSLFNSGNQKNYLTWYQQKPGQPPKLLIYWASTRESGVPDRFTGSGSGTDFTLTISSVQAEDLAVYFCQNDYSYPLTFGAGTKLELKRTVAAPSVFIFPPSDEQLKSGTASVVCLLNNFYPREAKVQWKVDNALQSGNSQESVTEQDSKDSTYSLSSTLTLSKADYEKHKVYACEVTHQGLSSPVTKSFNRGEC
notes: also called chimeric antibody 1B6-mVH-HC (IgG1) mVL
In assay [1], B14 yielded a Kd of 44.4 nM, an off-rate (koff) of 0.000792 s⁻¹ and a kon of 17800 M⁻¹ s⁻¹.

B15: 1B6-mVHmVL (antibody, human IgG4 S228P, kappa)
heavy: not shown
light: DIVMTQSPSSLTVTAGEKVTMSCKSSQSLFNSGNQKNYLTWYQQKPGQPPKLLIYWASTRESGVPDRFTGSGSGTDFTLTISSVQAEDLAVYFCQNDYSYPLTFGAGTKLELKRTVAAPSVFIFPPSDEQLKSGTASVVCLLNNFYPREAKVQWKVDNALQSGNSQESVTEQDSKDSTYSLSSTLTLSKADYEKHKVYACEVTHQGLSSPVTKSFNRGEC
notes: also called chimeric antibody 1B6; chimeric antibody murine 1B6 monoclonal antibody
In assay [1], B15 yielded a dissociation constant (Kd) of 84.2 nM, a koff of 0.00188 s⁻¹ and a kon of 22300 M⁻¹ s⁻¹.

B16: 1E7-mVH-HC (IgG1) mVL (antibody)
heavy: not shown
light: DIVMTQSPSSLSVTAGEKVTMSCKSSQSLLNSGNQKNYLTWYQQKPGQPPKLLIYWASTRESGVPDRFTGSGSGTDFTLTISSVQAEDLAVYYCQNDYSYPFTFGSGTKLEIKRTVAAPSVFIFPPSDEQLKSGTASVVCLLNNFYPREAKVQWKVDNALQSGNSQESVTEQDSKDSTYSLSSTLTLSKADYEKHKVYACEVTHQGLSSPVTKSFNRGEC
notes: also called chimeric antibody 1E7-mVH-HC (IgG1) mVL
On to B16, for which, in assay [1], binding was put at a Kd of 3.82 nM, the koff stood at 4.48e-05 s⁻¹ and the on-rate constant (kon) is 11700 M⁻¹ s⁻¹.
